# In US12533321B2, “Polypeptide formulations for oral delivery” (Bhami's Research Laboratory, Pvt. Ltd., priority 2022, dated 2026):
# What was measured:
# [1] = Pharmacokinetics of adalimumab in albumin crystal capsule (Vitamin E) vs IV, plasma adalimumab by ELISA; assay type: in vivo, Minipigs; set-up: Mean adalimumab levels: unit not given here; conditions: 12 mg; for Mean adalimumab levels: plasma, Pigs
# From the text: The microparticle of albumin crystals containing adalimumab was then lyophilized after washing with cold isopropanol. […] The capsule was then closed.
# (§1) Pigs in the oral treatment group was either fasted overnight or fed prior to the test sample administration. […] The time of dosage of each animal was noted. […] An antibody, anti-adalimumab was pre-coated onto a 96-well plate. […] The intensity of the yellow color is proportional to the adalimumab amount bound on the plate.
# [2] = Pharmacokinetics of adalimumab in albumin crystal sugar truffle shell vs IV, plasma adalimumab by ELISA; assay type: in vivo, Minipigs; set-up: Mean adalimumab levels: unit not given here; conditions: 12 mg; for Mean adalimumab levels: plasma, Pigs
# From the text: The microparticle of albumin crystals containing adalimumab was then lyophilized after washing with cold isopropanol.
# as §1
substance,measurement,setting,value
adalimumab,AUC 0-inf_obs,[1]; Minipigs,2387.704908 µg·h/mL
same,AUC 0-inf_pred,[1]; Minipigs,2433.025437 µg·h/mL
same,AUC t-inf_obs,[1]; Minipigs,1464.822434 µg·h/mL
same,AUC t-inf_pred,[1]; Minipigs,1510.142963 µg·h/mL
same,AUC(0-t),[1]; Minipigs,922.8824739 µg·h/mL
same,AUMC 0-inf_obs,[1]; Minipigs,476541890.8 ng/ml * h^2
same,AUMC 0-inf_pred,[1]; Minipigs,490022798.4 ng/ml * h^2
same,AUMC 0-t,[1]; Minipigs,40820243.03 ng/ml * h^2
same,AUMC 0-t/0-inf_obs,[1]; Minipigs,0.08566
same,AUMC 0-t/0-inf_pred,[1]; Minipigs,0.0833
same,AUMC t-inf_obs,[1]; Minipigs,435721647.8 ng/ml * h^2
same,AUMC t-inf_pred,[1]; Minipigs,449202555.4 ng/ml * h^2
same,C0,[1]; Minipigs,8311 ng/mL
same,Cl_obs,[1]; Minipigs,5.026E−06 (mg)/(ng/ml)/h
same,Cl_pred,[1]; Minipigs,4.932E−06 (mg)/(ng/ml)/h
same,Clast_obs,[1]; Minipigs,7271 ng/mL
same,Clast_pred,[1]; Minipigs,7496 ng/mL
same,Cmax,[1]; Minipigs,12110.42857 ng/mL
same,Lambda_z,[1]; Minipigs,0.00496 h⁻¹
same,MRT 0-inf_obs,[1]; Minipigs,199.6 h
same,MRT 0-inf_pred,[1]; Minipigs,201.4 h
same,MRT 0-t,[1]; Minipigs,44.23 h
same,Tlast,[1]; Minipigs,96 h
same,Tmax,[1]; Minipigs,2 h
same,Vss_obs,[1]; Minipigs,0.001003 (mg)/(ng/ml)
same,Vss_pred,[1]; Minipigs,0.0009934 (mg)/(ng/ml)
same,Vz_obs,[1]; Minipigs,0.001012 (mg)/(ng/ml)
same,Vz_pred,[1]; Minipigs,0.0009936 (mg)/(ng/ml)
same,t½,[1]; Minipigs,139.6393 h
same,Mean adalimumab levels,[1]; 0 hrs,8311.04
same,Mean adalimumab levels,[1]; 0.08 hrs,11638.36
same,Mean adalimumab levels,[1]; 0.5 hrs,11171.29
same,Mean adalimumab levels,[1]; 1 hrs,11637.57
same,Mean adalimumab levels,[1]; 2 hrs,11541.29
same,Mean adalimumab levels,[1]; 4 hrs,12110.43
same,Mean adalimumab levels,[1]; 8 hrs,11914.71
same,Mean adalimumab levels,[1]; 24 hrs,11552.57
same,Mean adalimumab levels,[1]; 48 hrs,10162.00
same,Mean adalimumab levels,[1]; 72 hrs,9803.00
same,Mean adalimumab levels,[1]; 96 hrs,8772.00
same,AUC 0-inf_obs,[2]; Minipigs,2387.704908 µg·h/mL
same,AUC 0-inf_pred,[2]; Minipigs,2433.025437 µg·h/mL
same,AUC t-inf_obs,[2]; Minipigs,1464.822434 µg·h/mL
same,AUC t-inf_pred,[2]; Minipigs,1510.142963 µg·h/mL
same,AUC(0-t),[2]; Minipigs,922.8824739 µg·h/mL
same,AUMC 0-inf_obs,[2]; Minipigs,476541890.8 ng/ml * h^2
same,AUMC 0-inf_pred,[2]; Minipigs,490022798.4 ng/ml * h^2
same,AUMC 0-t,[2]; Minipigs,40820243.03 ng/ml * h^2
same,AUMC 0-t/0-inf_obs,[2]; Minipigs,0.08566
same,AUMC 0-t/0-inf_pred,[2]; Minipigs,0.0833
same,AUMC t-inf_obs,[2]; Minipigs,435721647.8 ng/ml * h^2
same,AUMC t-inf_pred,[2]; Minipigs,449202555.4 ng/ml * h^2
same,C0,[2]; Minipigs,8311 ng/mL
same,Cl_obs,[2]; Minipigs,5.026E−06 (mg)/(ng/ml)/h
same,Cl_pred,[2]; Minipigs,4.932E−06 (mg)/(ng/ml)/h
same,Clast_obs,[2]; Minipigs,7271 ng/mL
same,Clast_pred,[2]; Minipigs,7496 ng/mL
same,Cmax,[2]; Minipigs,12110.42857 ng/mL
same,Lambda_z,[2]; Minipigs,0.00496 h⁻¹
same,MRT 0-inf_obs,[2]; Minipigs,199.6 h
same,MRT 0-inf_pred,[2]; Minipigs,201.4 h
same,MRT 0-t,[2]; Minipigs,44.23 h
same,Tlast,[2]; Minipigs,96 h
same,Tmax,[2]; Minipigs,2 h
same,Vss_obs,[2]; Minipigs,0.001003 (mg)/(ng/ml)
same,Vss_pred,[2]; Minipigs,0.0009934 (mg)/(ng/ml)
same,Vz_obs,[2]; Minipigs,0.001012 (mg)/(ng/ml)
same,Vz_pred,[2]; Minipigs,0.0009936 (mg)/(ng/ml)
same,t½,[2]; Minipigs,139.6393 h
same,Mean adalimumab levels,[2]; 0 hrs,8311.04
same,Mean adalimumab levels,[2]; 0.08 hrs,11638.36
same,Mean adalimumab levels,[2]; 0.5 hrs,11171.29
same,Mean adalimumab levels,[2]; 1 hrs,11637.57
same,Mean adalimumab levels,[2]; 2 hrs,11541.29
same,Mean adalimumab levels,[2]; 4 hrs,12110.43
same,Mean adalimumab levels,[2]; 8 hrs,11914.71
same,Mean adalimumab levels,[2]; 24 hrs,11552.57
same,Mean adalimumab levels,[2]; 48 hrs,10162.00
same,Mean adalimumab levels,[2]; 72 hrs,9803.00
same,Mean adalimumab levels,[2]; 96 hrs,8772.00
